# Reference: article PMC7762974, “Recombination and Pol ζ Rescue Defective DNA Replication upon Impaired CMG Helicase—Pol ε Interaction” (International Journal of Molecular Sciences, 2020)
# Experiments:
# Assay in all cases: pull-down; 2 pmol Halo-Sld5 GINS fixed on 10 µL HaloLink Resin, blocked with casein and BSA; 2 pmol Pol ε with 2 mg/mL BSA in 400 µL 25 mM HEPES-KOH pH 7.6, 200 mM K-acetate, 2 mM Mg-acetate, 10% glycerol, 0.1% Tween 20, 0.01% NP-40, 30 °C for 30 min; blot for Dpb2 and Psf2, band intensity compared to Psf1
# [1] = biological target: GINS complex with the Psf1-1 mutant subunit (R84G), Psf2, Psf3, Halotag-Sld5 (S. cerevisiae) (UniProt Q12488)
# [2] = biological target: GINS complex with the Psf1-100 mutant subunit (V161A, F162A, I163A, D164A), Psf2, Psf3, Halotag-Sld5 (S. cerevisiae) (UniProt Q12488)
# [3] = biological target: T1, DNA polymerase epsilon (Pol ε) comprising Pol2, Dpb2, Dpb3 and Dpb4 subunits (S. cerevisiae, UniProt P21951 1-2222; P24482 1-689; P27344 1-201; Q04603 1-196); settings: both partners purified
# T1 construct: Pol2, catalytic subunit of DNA polymerase epsilon, S. cerevisiae; Dpb2, noncatalytic subunit of DNA polymerase epsilon, S. cerevisiae; Dpb3, noncatalytic subunit of DNA polymerase epsilon, S. cerevisiae; Dpb4, noncatalytic subunit of DNA polymerase epsilon, S. cerevisiae; source: purified as described previously [40]; copies: + + +
# T1 sequence (P21951 whole entry, chain 1 of 4): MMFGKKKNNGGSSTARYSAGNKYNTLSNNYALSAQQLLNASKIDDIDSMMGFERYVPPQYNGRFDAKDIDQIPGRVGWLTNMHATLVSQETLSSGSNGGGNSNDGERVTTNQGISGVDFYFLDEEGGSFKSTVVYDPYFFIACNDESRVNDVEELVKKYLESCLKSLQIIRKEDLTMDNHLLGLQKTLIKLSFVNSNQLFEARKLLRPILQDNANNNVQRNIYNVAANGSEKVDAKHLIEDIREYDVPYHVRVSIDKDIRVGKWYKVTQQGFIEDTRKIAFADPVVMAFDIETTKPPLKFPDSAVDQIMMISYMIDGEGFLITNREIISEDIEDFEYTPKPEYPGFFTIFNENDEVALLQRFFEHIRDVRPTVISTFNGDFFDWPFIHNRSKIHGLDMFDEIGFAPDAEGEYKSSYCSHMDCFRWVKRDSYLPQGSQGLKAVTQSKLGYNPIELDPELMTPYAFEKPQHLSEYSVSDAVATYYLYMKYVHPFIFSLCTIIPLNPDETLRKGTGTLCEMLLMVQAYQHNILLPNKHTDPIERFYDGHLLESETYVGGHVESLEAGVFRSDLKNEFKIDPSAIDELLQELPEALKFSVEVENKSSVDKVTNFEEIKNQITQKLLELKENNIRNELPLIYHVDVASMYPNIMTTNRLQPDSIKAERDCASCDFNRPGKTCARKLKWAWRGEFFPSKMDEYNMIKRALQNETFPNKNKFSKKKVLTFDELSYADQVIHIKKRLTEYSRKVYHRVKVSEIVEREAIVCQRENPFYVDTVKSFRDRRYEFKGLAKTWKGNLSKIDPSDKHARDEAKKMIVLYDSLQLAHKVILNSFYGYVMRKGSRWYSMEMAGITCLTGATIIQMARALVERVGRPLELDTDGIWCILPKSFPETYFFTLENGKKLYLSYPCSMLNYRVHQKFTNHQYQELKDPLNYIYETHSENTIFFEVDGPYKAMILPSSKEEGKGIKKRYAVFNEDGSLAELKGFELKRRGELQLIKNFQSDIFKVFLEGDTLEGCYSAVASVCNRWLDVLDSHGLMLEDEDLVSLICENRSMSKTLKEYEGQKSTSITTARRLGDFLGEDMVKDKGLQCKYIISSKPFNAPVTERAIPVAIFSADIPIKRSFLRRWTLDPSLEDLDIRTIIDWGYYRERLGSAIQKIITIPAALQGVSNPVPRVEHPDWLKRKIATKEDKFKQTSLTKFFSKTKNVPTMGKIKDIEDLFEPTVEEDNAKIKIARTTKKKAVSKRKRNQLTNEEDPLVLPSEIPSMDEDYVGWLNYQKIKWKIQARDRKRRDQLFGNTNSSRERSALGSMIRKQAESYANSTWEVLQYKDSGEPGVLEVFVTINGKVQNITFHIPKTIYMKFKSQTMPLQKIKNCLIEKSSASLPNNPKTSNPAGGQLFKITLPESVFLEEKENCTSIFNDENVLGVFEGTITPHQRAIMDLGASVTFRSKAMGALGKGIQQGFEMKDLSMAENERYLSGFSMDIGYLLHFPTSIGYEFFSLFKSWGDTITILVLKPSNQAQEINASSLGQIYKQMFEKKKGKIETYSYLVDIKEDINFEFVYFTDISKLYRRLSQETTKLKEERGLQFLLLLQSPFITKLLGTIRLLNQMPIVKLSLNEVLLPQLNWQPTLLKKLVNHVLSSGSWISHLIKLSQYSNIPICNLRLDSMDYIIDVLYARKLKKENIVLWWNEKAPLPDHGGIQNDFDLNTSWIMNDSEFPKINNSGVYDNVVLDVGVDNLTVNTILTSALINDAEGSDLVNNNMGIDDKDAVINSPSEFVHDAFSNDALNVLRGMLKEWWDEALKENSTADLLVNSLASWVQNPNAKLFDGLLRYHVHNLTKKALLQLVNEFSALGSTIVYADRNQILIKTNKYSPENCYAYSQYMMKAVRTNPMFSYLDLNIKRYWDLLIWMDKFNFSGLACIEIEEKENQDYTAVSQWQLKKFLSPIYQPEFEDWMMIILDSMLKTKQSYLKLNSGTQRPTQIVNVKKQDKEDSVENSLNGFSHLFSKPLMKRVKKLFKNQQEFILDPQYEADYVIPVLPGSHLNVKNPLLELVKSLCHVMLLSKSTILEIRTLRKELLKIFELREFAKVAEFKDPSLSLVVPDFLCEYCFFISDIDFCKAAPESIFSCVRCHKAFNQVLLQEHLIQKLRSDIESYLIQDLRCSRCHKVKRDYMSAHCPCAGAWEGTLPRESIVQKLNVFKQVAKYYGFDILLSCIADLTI
# T1 sequence (P24482 whole entry, chain 2 of 4): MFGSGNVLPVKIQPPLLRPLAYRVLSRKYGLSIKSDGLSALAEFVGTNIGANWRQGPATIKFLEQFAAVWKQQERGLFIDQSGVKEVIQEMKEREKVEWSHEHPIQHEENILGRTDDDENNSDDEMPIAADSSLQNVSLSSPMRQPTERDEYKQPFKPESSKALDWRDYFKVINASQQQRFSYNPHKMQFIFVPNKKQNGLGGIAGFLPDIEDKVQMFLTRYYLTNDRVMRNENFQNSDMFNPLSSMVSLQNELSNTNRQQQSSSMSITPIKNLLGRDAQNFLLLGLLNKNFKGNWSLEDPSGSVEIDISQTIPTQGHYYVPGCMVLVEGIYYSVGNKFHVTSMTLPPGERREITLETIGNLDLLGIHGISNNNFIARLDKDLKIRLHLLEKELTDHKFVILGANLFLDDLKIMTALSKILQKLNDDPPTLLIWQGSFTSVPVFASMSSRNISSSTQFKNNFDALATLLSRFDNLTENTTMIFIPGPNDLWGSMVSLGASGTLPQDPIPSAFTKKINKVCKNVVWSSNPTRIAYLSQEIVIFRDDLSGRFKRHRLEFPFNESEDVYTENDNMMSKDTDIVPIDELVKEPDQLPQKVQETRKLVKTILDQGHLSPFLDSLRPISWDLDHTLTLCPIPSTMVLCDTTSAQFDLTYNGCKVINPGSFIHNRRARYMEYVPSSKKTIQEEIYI
# T1 sequence (P27344 whole entry, chain 3 of 4): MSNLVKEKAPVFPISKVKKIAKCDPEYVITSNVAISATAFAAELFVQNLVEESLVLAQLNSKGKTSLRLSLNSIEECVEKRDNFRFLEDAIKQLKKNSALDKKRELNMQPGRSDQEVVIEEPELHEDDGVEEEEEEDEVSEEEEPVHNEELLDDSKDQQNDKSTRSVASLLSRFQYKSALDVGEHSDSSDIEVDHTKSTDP
# T1 sequence (Q04603 whole entry, chain 4 of 4): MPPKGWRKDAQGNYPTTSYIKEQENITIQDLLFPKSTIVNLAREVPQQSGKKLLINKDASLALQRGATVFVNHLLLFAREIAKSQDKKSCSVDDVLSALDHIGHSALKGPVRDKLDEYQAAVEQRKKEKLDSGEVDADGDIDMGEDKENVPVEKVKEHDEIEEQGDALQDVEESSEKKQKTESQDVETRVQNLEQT
molecule,measurement,setting,value
"DNA polymerase epsilon (Pol ε) comprising Pol2, Dpb2, Dpb3 and Dpb4 subunits, P21951 1-2222; P24482 1-689; P27344 1-201; Q04603 1-196",band intensity compared to Psf1 (relative to Psf1),[1],0.96
same,band intensity compared to Psf1 (relative to Psf1),[2],0.31
"GINS complex (Psf1, Psf2, Psf3, Halotag-Sld5), wild type (complex, S. cerevisiae, Psf1 subunit of GINS, S. cerevisiae; Psf2 subunit of GINS, S. cerevisiae; Psf3 subunit of GINS, S. cerevisiae; Sld5 subunit of GINS, S. cerevisiae; also called GINS_(Psf1); WT; source: purified as described previously [40]; copies: + + +) chain 1: MYGDLGNKLVLEAKRTKQLYARSNQDVNLPMYHEDIIRNILKEVSNLRKNTEYLKEQQQLGMLDDKVAKCQYFVTLLCMERNKRCLLAYQRLRTDILDSMAWNNNGLDLMSSITFSQQDTNNLSHQEQEYLKEYCDLITDLKSGDLVDIDLSGSLVPPSDVFIDVRVLKDAGEIQTEYGVFNLIKDSQFFVRQSDVERLIQQGYLQKI chain 2: MSLPAHLQQTFSPEEIQFIVENEPIKIFPRITTRQKIRGDDRGTGNHTRWQLITTDDKALNNMVAMRSTEVVLWIALLLKQQSKCSIVAPQWLTTKELDRKIQYEKTHPDRFSELPWNWLVLARILFNKAKDDFHDPIHELRGKIQDLREIRQIKVLKGLKYLNESHLQLDNLSLLEINELRPFITEIMDKLREIHTASLTAGTENDEEEFNI chain 3: MGYYDIDDVLADGTEFPCKFQYDIPGLGYLENNPGRPITKNTKLSLPLWLARILAIVGGDEALVDEEPVPFVELLPPDMFSTKVMNAIKTDPVALDLHSINSHFFSLAIKWIMLFSEKELANVVSELLLQRAQELNHHASSLSIDLNADSTGKNSANTNIATSTFLLKLEEMEKEIYKKSHESYKDTKRWMFKK chain 4: MDINIDDILAELDKETTAVDSTKITQGSSSTTHRDANTIVGSSLDLNDKTQIYVSPQQDFSDLMKSWKNERCSPELLPYPHQLMKRLLNRISMQSQLIENISMGFLDMQNASNANPPMPNESKLPLLCMETELERLKFVIRSYIRCRLSKIDKFSLYLRQLNEDENSLISLTDLLSKDEIKYHDTHSLIWLKLVNDSILKYMPEELQAINDTEGSVNMIDEPDWNKFVFIHVNGPPDGKWNEDPLLQENEFGKPCYTVTIPDLKEEVELTIGSIYVMRYEVIRDLLRDDKVALI",binding result,[3],binds
